Measured values as given in US20240368285A1 (HEFEI TG IMMUNOPHARMA, published 2024).

Key:
[1] = biological target: T1, MICA on human tumor cells (A-375, A549, HCT-15, MDA-MB-231) (human, UniProt Q29983 24-383); experiment: flow cytometry on A-375 cells, Alexa-647 goat anti-human secondary, average fluorescence intensity
T1 construct: whole, on cells
T1 sequence (looked up): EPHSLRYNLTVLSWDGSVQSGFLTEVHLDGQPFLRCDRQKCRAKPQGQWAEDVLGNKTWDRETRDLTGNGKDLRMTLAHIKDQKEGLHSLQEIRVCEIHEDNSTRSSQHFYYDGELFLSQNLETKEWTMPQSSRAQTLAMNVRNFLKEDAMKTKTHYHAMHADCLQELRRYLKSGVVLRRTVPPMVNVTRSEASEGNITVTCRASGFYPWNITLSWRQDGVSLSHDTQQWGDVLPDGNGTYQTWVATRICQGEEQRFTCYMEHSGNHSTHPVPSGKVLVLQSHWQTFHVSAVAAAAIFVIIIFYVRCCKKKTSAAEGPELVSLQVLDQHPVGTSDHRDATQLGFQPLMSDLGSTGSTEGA
Procedure: (1) Tumor cells were diluted to a density of 2×10⁶/mL with PBS and then added into a 1.5 ml EP tube in a volume of 100 l/tube. 10 l/tube of goat serum was added into the EP tube; and blocking was conducted at 4° C. for 30 min. Antibody h5A1 (having a heavy chain sequence as set forth in SEQ ID NO: 11 and a light chain sequence as set forth in SEQ ID NO: 12), antibody h5A1002 (having a heavy chain sequence as set forth in SEQ ID NO: 13 and a light chain sequence as set forth in SEQ ID NO: 14), and control IgG1 (purchased from Biointron) were gradient-diluted (at a highest working concentration of 50 μg/ml, 10 gradients, diluted by 3 times for each gradient) and added. The tube was incubated at 4° C. for 30 min. 1 mL of PBS was added into the EP tube, and centrifugation was conducted 4° C. at a rate of 3,500 rpm for 5 min. The supernatant was removed. The EP tube was washed once with the PBS. The supernatant was removed after centrifugation. The cells were resuspended with PBS in a volume of 100 l/tube. An Alexa-647 labeled goat anti-human secondary antibody (purchased from Jackson lab) was added into the tube in a volume of 1 l/tube; and the plate was incubated in the dark at 4° C. for 30 min. The tube was washed twice with PBS, and the supernatant was removed after centrifugation. […]

[2] = biological target: T1, MICA on human tumor cells (A-375, A549, …); experiment: flow cytometry on A-375 cells, Alexa-647 goat anti-human secondary, % binding ratio
Procedure: (2) Tumor cells were diluted to a density of 2×10⁶/mL with PBS and added into a 1.5 ml EP tube in a volume of 100 l/tube. 10 l/tube of goat serum was added into the EP tube; and blocking was conducted at 4° C. for 30 min. […] The tube was incubated at 4° C. for 30 min. 1 mL of PBS was added into the EP tube, and centrifugation was conducted 4° C. at a rate of 3,500 rpm for 5 min. The supernatant was removed. Then, the EP tube was washed once with the PBS, and the supernatant was removed after centrifugation. The cells were resuspended with PBS in a volume of 100 l/tube. An Alexa-647 labeled goat anti-human secondary antibody (purchased from Jackson lab) was added into the tube in a volume of 1 l/tube, and the tube was incubated in the dark at 4° C. for 30 min. The tube was washed twice with PBS, and the supernatant was removed after centrifugation. The cells were resuspended with the PBS in a volume of 200 l/tube, and detection was conducted by a flow cytometer. The results are as shown in FIG. 17A and FIG. 17B, FIG. 18A and FIG. 18B, FIG. 19A and FIG. 19B, and FIG. 20A and FIG. 20B.

B1: affinity maturation antibody h5A1002 (antibody, V domains shown)
VH: QVQLQESGPGLVKPSETLSLTCTVSGFSLTTYGGHWIRQPPGKGLEWIGMIWTDGWTDYNAAFISRVTISVDTSKNQFSLKLSSVTAADTAVYYCARKGHGYYYAMDYWGQGTLVTVSS
VL: EIVLTQSPGTLSLSPGERATLSCTASSSVSSSYLHWYQQKPGQAPRLLIYSTSNLISGIPDRFSGSGSGTDFTLTISRLEPEDFAVYYCHQYHRSPFTFGQGTKLEIKR
notes: Human IgG1, kappa; also called h5A1002-hIgG1
EC50 (read off the curve) [1]: ~2 µg/mL
EC50 (read off the curve) [2]: ~0.3 µg/mL
